We go through 1 substance from patent US20040208887A1.

Assay [1] has as its target recombinant E1/E2 heterodimer protein (genotype 1a) (hepatitis C virus genotype 1a) (UniProt P26664). Briefly: ELISA, E1/E2 heterodimer coated; control Fab. (ELISA stands for enzyme-linked immunosorbent assay.)
Assay [2] has as its target recombinant soluble HCV E1 protein (hepatitis C virus). Briefly: ELISA, recombinant E1 captured on GNA lectin; control Fab.
Another assay concerns the target BSA (Sigma) (UniProt P02769). The assay is described as follows: ELISA, BSA coated as negative control antigen; control Fab.

Sequence of recombinant E1/E2 heterodimer protein (genotype 1a) (hepatitis C virus genotype 1a) (P26664 192-383 limits assumed, chain 1 of 2): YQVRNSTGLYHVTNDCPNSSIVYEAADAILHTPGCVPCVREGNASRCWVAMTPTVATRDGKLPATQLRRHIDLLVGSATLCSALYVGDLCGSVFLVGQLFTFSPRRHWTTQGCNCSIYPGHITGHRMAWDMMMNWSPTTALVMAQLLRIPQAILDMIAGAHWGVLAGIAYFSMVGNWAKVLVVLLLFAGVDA
Sequence of recombinant E1/E2 heterodimer protein (genotype 1a) (hepatitis C virus genotype 1a) (P26664 384-746 limits assumed, chain 2 of 2): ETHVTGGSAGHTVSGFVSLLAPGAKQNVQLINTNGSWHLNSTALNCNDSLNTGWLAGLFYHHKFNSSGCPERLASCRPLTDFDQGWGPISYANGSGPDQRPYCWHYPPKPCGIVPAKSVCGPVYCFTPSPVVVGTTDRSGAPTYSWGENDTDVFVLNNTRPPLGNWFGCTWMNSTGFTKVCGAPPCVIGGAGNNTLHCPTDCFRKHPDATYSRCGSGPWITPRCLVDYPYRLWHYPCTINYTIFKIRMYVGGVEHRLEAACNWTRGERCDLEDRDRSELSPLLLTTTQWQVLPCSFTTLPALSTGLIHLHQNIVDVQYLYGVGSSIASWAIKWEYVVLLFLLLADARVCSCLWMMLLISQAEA
Sequence of BSA (Sigma) (P02769 25-607 limits assumed): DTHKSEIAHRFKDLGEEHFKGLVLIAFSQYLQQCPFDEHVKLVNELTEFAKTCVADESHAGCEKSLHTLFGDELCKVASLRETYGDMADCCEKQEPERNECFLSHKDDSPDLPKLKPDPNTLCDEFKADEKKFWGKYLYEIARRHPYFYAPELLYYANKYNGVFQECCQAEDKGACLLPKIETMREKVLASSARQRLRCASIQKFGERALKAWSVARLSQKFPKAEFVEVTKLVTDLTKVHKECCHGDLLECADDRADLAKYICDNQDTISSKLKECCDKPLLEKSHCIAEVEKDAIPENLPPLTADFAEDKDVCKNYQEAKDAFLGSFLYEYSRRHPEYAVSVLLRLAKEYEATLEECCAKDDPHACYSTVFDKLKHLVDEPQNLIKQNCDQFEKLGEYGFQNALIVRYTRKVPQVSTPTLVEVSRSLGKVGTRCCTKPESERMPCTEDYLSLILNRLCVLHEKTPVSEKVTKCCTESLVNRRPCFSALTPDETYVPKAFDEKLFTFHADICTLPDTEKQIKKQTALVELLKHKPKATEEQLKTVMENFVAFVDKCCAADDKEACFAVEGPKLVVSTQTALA

As for non-specific Fab, the OD405 nm came out at 0.11 OD405 nm in assay [1], 0.2 OD405 nm in assay [2] and 0.14 OD405 nm with BSA (Sigma).
